# Source: IntAct's records for PubMed 35512704
# B1: Mothers against decapentaplegic homolog 4 (Homo sapiens), Q13485 (parent)
# chain: MDNMSITNTPTSNDACLSIVHSLMCHRQGGESETFAKRAIESLVKKLKEKKDELDSLITAITTNGAHPSKCVTIQRTLDGRLQVAGRKGFPHVIYARLWRWPDLHKNELKHVKYCQYAFDLKCDSVCVNPYHYERVVSPGIDLSGLTLQSNAPSSMMVKDEYVHDFEGQPSLSTEGHSIQTIQHPPSNRASTETYSTPALLAPSESNATSTANFPNIPVASTSQPASILGGSHSEGLLQIASGPQPGQQQNGFTGQPATYHHNSTTTWTGSRTAPYTPNLPHHQNGHLQHHPPMPPHPGHYWPVHNELAFQPPISNHPAPEYWCSIAYFEMDVQVGETFKVPSSCPIVTVDGYVDPSGGDRFCLGQLSNVHRTEAIERARLHIGKGVQLECKGEGDVWVRCLSDHAVFVQSYYLDREAGRAPGDAVHKIYPSAYIKVFDLRQCHRQMQQQAATAQAAAAAQAAAVAGNIPGPGSVGGIAPAISLSAAAGIGVDDLRRLCILRMSFVKGWGPDYPRQSIKETPCWIEIHLHRALQLLDEVLHTMPIADPQPLD
# partner: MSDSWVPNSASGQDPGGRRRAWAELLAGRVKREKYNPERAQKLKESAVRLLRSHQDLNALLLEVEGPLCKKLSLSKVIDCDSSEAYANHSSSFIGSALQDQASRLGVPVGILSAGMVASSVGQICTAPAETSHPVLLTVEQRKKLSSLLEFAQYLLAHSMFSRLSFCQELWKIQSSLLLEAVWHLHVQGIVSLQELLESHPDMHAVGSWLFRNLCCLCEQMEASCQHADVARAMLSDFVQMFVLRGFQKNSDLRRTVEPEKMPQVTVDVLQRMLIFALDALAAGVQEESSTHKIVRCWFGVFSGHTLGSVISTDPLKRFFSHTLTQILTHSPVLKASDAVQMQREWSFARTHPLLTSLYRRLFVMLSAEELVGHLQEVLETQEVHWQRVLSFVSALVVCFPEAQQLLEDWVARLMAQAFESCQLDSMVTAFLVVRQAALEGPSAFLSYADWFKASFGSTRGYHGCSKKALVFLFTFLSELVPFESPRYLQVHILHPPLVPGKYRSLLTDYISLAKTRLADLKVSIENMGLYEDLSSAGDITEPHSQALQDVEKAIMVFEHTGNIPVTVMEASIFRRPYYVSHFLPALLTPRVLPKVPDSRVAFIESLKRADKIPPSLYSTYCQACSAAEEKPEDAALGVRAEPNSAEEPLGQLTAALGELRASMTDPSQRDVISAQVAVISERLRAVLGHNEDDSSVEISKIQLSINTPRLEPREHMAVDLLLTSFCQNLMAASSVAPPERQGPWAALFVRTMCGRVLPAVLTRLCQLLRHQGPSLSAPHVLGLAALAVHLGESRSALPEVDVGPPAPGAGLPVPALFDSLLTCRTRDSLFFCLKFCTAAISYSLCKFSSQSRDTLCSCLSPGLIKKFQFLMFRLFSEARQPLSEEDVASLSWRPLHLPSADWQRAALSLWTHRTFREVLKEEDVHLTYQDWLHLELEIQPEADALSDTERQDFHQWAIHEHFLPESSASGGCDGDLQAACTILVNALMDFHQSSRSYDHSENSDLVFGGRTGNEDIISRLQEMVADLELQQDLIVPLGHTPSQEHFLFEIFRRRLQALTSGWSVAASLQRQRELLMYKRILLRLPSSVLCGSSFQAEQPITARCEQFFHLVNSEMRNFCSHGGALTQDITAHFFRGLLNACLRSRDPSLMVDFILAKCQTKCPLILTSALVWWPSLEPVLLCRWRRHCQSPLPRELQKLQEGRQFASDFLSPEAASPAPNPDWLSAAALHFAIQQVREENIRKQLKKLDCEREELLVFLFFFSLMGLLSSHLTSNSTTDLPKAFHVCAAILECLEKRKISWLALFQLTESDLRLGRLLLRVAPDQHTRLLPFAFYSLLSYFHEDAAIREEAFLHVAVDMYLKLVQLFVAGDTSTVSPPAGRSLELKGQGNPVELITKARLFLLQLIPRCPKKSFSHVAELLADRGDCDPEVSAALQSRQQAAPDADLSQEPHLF
# B2: Mothers against decapentaplegic homolog 4 (Homo sapiens), Q13485 (parent)
# chain: B1 chain
# partner: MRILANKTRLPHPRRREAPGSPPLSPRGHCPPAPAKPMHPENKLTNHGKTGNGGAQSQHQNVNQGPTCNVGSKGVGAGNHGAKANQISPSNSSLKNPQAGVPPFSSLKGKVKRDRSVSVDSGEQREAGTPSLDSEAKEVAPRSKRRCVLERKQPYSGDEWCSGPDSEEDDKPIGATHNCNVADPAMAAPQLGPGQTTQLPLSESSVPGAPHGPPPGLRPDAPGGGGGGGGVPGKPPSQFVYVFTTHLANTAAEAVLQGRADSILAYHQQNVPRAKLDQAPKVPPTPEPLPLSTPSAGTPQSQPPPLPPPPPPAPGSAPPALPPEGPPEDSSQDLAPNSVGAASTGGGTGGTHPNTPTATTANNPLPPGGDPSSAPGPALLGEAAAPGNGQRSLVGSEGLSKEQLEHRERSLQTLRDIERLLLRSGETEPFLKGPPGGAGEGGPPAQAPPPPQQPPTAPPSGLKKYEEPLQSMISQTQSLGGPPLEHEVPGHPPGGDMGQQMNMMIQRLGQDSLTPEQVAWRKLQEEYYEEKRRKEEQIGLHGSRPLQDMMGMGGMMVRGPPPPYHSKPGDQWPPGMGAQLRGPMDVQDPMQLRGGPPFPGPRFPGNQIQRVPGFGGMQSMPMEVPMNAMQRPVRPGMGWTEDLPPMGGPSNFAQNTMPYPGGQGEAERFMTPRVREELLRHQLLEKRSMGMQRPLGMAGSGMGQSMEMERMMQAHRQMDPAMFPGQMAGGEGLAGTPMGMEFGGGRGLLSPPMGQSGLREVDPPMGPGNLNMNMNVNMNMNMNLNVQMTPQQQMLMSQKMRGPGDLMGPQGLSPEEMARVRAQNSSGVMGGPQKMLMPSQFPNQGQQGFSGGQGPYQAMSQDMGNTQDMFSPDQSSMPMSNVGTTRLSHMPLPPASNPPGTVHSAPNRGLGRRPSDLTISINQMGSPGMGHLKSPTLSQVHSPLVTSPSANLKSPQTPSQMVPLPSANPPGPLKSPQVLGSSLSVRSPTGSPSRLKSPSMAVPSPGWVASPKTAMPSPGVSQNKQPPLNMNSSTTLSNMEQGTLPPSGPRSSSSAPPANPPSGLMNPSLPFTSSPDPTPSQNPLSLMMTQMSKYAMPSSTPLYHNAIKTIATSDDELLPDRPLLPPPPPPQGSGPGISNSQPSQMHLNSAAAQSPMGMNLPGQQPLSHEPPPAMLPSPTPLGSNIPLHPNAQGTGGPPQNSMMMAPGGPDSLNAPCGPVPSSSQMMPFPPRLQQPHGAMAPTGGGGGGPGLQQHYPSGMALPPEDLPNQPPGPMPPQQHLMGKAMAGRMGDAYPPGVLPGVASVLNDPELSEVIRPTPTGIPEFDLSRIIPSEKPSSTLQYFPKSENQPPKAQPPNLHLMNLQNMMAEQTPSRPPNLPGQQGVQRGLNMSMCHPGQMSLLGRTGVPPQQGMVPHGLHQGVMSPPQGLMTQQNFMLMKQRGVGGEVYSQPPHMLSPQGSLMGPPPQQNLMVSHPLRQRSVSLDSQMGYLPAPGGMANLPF
# B3: Mothers against decapentaplegic homolog 4 (Homo sapiens), Q13485 (parent)
# chain: B1 chain
# partner: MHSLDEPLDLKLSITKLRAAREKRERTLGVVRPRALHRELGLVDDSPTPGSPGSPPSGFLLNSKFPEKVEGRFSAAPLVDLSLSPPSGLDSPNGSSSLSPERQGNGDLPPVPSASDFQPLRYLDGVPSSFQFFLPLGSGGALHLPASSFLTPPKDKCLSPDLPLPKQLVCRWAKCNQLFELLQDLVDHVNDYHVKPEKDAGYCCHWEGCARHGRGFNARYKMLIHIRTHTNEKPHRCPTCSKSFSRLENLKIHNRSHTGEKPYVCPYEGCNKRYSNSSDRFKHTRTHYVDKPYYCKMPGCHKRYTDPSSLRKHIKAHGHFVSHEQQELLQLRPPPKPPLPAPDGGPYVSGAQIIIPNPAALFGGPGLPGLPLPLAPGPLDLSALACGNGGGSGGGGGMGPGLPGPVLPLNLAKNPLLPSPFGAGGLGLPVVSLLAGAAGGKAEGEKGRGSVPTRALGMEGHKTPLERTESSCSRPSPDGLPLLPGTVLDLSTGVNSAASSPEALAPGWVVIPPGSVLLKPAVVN
# Variants of: B1
# Conditions: with fanca_human FANCA
row,Variant,effect of a mutation on the interaction
1,G386D,with no effect

# Variants of: B1
# Conditions: with fanca_human FANCA
# Remark: another data set of the same source
row,Variant,effect of a mutation on the interaction
1,D351H,with no effect

# Variants of: B1
# Conditions: with fanca_human FANCA
# Remark: another data set of the same source
row,Variant,effect of a mutation on the interaction
1,R361C,with no effect

# Variants of: B1
# Conditions: with fanca_human FANCA
# Remark: another data set of the same source
row,Variant,effect of a mutation on the interaction
1,R361H,with no effect

# Variants of: B2
# Conditions: with bcl9l_human BCL9L
row,Variant,effect of a mutation on the interaction
1,R361C,with no effect

# Variants of: B2
# Conditions: with bcl9l_human BCL9L
# Remark: another data set of the same source
row,Variant,effect of a mutation on the interaction
1,R361H,with no effect

# Variants of: B2
# Conditions: with bcl9l_human BCL9L
# Remark: another data set of the same source
row,Variant,effect of a mutation on the interaction
1,G386D,with no effect

# Variants of: B2
# Conditions: with bcl9l_human BCL9L
# Remark: another data set of the same source
row,Variant,effect of a mutation on the interaction
1,D351H,with no effect

# Variants of: B3
# Conditions: with glis2_human GLIS2, Q9BZE0
row,Variant,effect of a mutation on the interaction
1,G386D,with no effect

# Variants of: B3
# Conditions: with glis2_human GLIS2, Q9BZE0
# Remark: another data set of the same source
row,Variant,effect of a mutation on the interaction
1,D351H,with no effect

# Variants of: B3
# Conditions: with glis2_human GLIS2, Q9BZE0
# Remark: another data set of the same source
row,Variant,effect of a mutation on the interaction
1,R361C,with no effect

# Variants of: B3
# Conditions: with glis2_human GLIS2, Q9BZE0
# Remark: another data set of the same source
row,Variant,effect of a mutation on the interaction
1,R361H,with no effect
